{
  "source": "patent CN115772220A",
  "about": "(WUHAN ABCLONAL INC, dated 2023)",
  "binders": {"B1": {"name": "兔单克隆抗体10A10 (rabbit monoclonal antibody 10A10 against human IL-1β) (antibody, V domains shown)", "VH": "QSVEESGGRLVTPGTPLTLTCTVSGFSLSTYAMSWVRQAPGKGLEWIGIISGSGNTAYASWAKGRFTISKTSTTVDLKMTSPTTEDTATYFCARSYEDYANIWGPGTLVTVSS", "VL": "AQVLTQTPSSVSAAVGGTVTINCQASQSLYNNNELSWYQQKPGQPPKLLIYKASTLASGVSSRFKGSGSGTQFTLTISGVQCDDAATYYCQGDYSCRIADCYAFGGGTEVVVKG"}, "B2": {"name": "兔单克隆抗体1F3 (rabbit monoclonal antibody 1F3 against human IL-1β) (antibody, V domains shown)", "VH": "QSVEESGGRLVTPGTPLTLTCTVSGFSLSRNAISWVRQPPGKGLEWIGFISSYDTTYYATWAKGRFTISKTSTTVDLKIASPTTEDTATYFCARETGADNNSNFDIWGPGTLVTVSS", "VL": "AQVLTQTPSPVSAAVGGTVTINCQSSQSVSHNNWLAWYQQKPGQPPKLLIYDASKLASGVSSRFRGSGSGTQFTLTISGVQCDDAATYYCQGETFCSSADCNAFGGGTELVVKG", "notes": "In the BLI experiments it was unlabelled; also called 兔抗Human IL-1β单克隆抗体A; 1F3-biotin"}},
  "key": {"[1]": {"target": "重组人IL-1β蛋白 (recombinant human IL-1β protein, as used in the Gator BLI experiments) (human) (UniProt P01584)", "test": "BLI (Gator Prime), IL-1β on the probe saturated with 1F3, 10A10 as second antibody"}, "[2]": {"target": "T1, 重组人IL-1β蛋白 (recombinant human IL-1β protein, as used in the Gator BLI experiments) (human, UniProt P01584 117-269)", "T1 construct": "also called 人白介素-1β; 目的蛋白", "test": "BLI (Gator Prime), affinity test"}, "[3]": {"target": "T2, 重组人白介素-1β，R&D货号:840170 (recombinant human IL-1β standard of the sandwich ELISA) (human, UniProt P01584 117-269)", "T2 construct": "also called 标准样品; 人白介素-1β蛋白", "test": "double-antibody sandwich ELISA, 10A10 capture and 1F3-biotin detection, human IL-1β at 100pg/mL"}},
  "data": [
    {"binder": "B1", "values": [
      {"measurement": "shift值", "setting": "[1]", "value": 0.214}
    ]},
    {"binder": "B2", "values": [
      {"measurement": "binding result", "setting": "[2]", "value": "binds"},
      {"measurement": "binding result", "setting": "[3]", "value": "binds"}
    ]}
  ]
}
